# Data as given in patent publication US20090123489A1 (IMMATICS BIOTECHNOLOGIES, published 2009).
# B1: PTP-001 (peptide)
# peptide: ALTTLMHQL
# notes: 9-mer from PTPRZ1
# B2: PTP-004 (peptide)
# peptide: FLLPDTDGL
# B3: PTP-003 (peptide)
# peptide: AIIDGVESV
# B4: CHI-001 (peptide)
# peptide: SLWAGVVVL
# B5: PTP-002 (peptide)
# peptide: FLYKVILSL
# B6: PTP-005 (peptide)
# peptide: KVFAGIPTV
# Target: T1, HLA-A*0205 (human)
# T1 construct: whole, on cells; Native HLA precipitated from tumor tissue
# Assay: peptide eluted from HLA precipitated from glioblastoma tissue, identified by ESI-LCMS
row,Binder,binding result
1,B1,binds

# Target: HLA-A*0201 (recombinant heavy chain with beta-2 microglobulin) (human)
# Assay: ELISA-based HLA refolding assay
# Procedure: Stable HLA/peptide complexes consist of three molecules: HLA heavy chain, beta-2 microglobulin (b2m) and the peptidic ligand. […] The availability of these molecules is used in an ELISA-based assay to measure the affinity of interaction between peptide and HLA class I molecule (Sylvester-Hvid et al., 2002).
# The amount of de novo-folded HLA/peptide complexes was determined by a quantitative ELISA. Dissociation constants (KD values) were calculated using a standard curve recorded from dilutions of a calibrant HLA/peptide complex.
row,Binder,binding result
1,B1,binds
2,B2,binds
3,B3,binds
4,B4,binds
5,B5,binds
6,B6,binds
